Experimental data taken from patent publication US20230250176A1 (DRAGONFLY THERAPEUTICS, published 2023).
Changes are numbered by the printed parent chain. Like-named read-outs stand apart in the source and are kept apart here.

Experiments:
[1] = target: T1, human EGFR (wild type) on cells (human, UniProt P00533 25-1210); experiment: flow cytometry, NCI-H292 cells
T1 construct: whole, on cells; also called EGFRwt

[2] = target: T1, human EGFR (wild type) on cells; experiment: cell-based or functional assay
[3] = target: T2, human EGFR T790M, L858R on NCI-H1975 cells (human, UniProt P00533 25-1210); experiment: cell-based or functional assay
[4] = target: T1, human EGFR (wild type) on cells; experiment: flow cytometry, NCI-H1703 cells
[5] = target: T1, human EGFR (wild type) on cells; experiment: flow cytometry, HT29 cells
[6] = target: T1, human EGFR (wild type) on cells; experiment: cell-based or functional assay; remark: listed apart in the source
[7] = target: T2, human EGFR T790M, L858R on NCI-H1975 …; experiment: cell-based or functional assay; remark: listed apart in the source
recombinant mouse NKG2D = target: T3, recombinant mouse NKG2D (mouse, UniProt O54709 94-232, limits assumed); experiment: SPR
T3 sequence (looked up): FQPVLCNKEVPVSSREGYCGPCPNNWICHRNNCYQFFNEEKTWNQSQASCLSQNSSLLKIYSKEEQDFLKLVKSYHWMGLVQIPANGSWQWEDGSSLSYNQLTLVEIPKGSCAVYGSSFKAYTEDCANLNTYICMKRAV

[8] = target: T4, recombinant cynomolgus monkey NKG2D (cynomolgus monkey, UniProt P61252 78-216, limits assumed); experiment: SPR
T4 sequence (looked up): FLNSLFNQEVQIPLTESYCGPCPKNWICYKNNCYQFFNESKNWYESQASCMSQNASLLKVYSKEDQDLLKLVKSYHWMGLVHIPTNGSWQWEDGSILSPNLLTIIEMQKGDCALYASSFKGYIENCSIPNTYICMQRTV

recombinant rat NKG2D = target: T5, recombinant rat NKG2D (rat, UniProt O70215 75-215, limits assumed); experiment: SPR
T5 sequence (looked up): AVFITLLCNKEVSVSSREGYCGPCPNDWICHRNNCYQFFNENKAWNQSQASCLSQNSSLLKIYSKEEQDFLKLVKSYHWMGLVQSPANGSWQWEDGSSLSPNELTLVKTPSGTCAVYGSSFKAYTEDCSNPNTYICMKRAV

[9] = target: T6, purified recombinant human NKG2D (human, UniProt P26718 78-216, limits assumed); experiment: SPR
T6 sequence (looked up): T4 sequence (looked up) with N38D, I128T

[10] = target: T7, purified recombinant human EGFR (human, UniProt P00533 25-645); experiment: SPR (Biacore 8K), 37 C
T7 construct: the whole entry is named; also called recombinant human epidermal growth factor receptor

[11] = target: T1, human EGFR (wild type) on cells; experiment: cell-based or functional assay; remark: listed apart in the source
[12] = target: T1, human EGFR (wild type) on cells; experiment: flow cytometry, KYSE-30 cells
[13] = target: T6, purified recombinant human NKG2D; experiment: SPR (Biacore 8K), 25 C
[14] = target: T1, human EGFR (wild type) on cells; experiment: cell-based or functional assay; remark: listed apart in the source
[15] = target: T2, human EGFR T790M, L858R on NCI-H1975 …; experiment: cell-based or functional assay; remark: listed apart in the source
[16] = target: purified recombinant rat EGFR (rat, UniProt A0ABK0LZB0 35-651); experiment: SPR (Biacore 8K), 37 C
[17] = target: purified recombinant cynomolgus monkey EGFR (cynomolgus monkey, UniProt A0A2K5WK39 25-645); experiment: SPR (Biacore 8K), 37 C
[18] = target: purified recombinant mouse EGFR (mouse, UniProt Q01279 25-647, limits assumed); experiment: SPR (Biacore 8K), 37 C
[19] = target: T7, purified recombinant human EGFR; experiment: SPR (Biacore 8K), 37 C; remark: listed apart in the source
cynomolgus monkey CD16a = target: T8, cynomolgus monkey CD16a (cynomolgus monkey, UniProt Q8SPW2 17-208, limits assumed); experiment: SPR
T8 construct: also called cynomolgus monkey FcγRIIIa

[20] = target: human EGFR L747-E749del, A750P on HCC4006 cells (human, UniProt P00533 25-1210); experiment: cell-based or functional assay
[21] = target: T1, human EGFR (wild type) on cells; experiment: cell-based or functional assay; remark: listed apart in the source

B1: EGFR-TriNKET (bispecific antibody, human IgG1, kappa)
chain: DIQMTQSPSSLSASVGDRVTITCQASQDISNYLNWYQQKPGKAPKLLIYDASNLETGVPSRFSGSGSGTDFTFTISSLQPEDIATYYCQHFRHLPLAFGCGTKVEIKGGGGSGGGGSGGGGSGGGGSQVQLQESGPGLVKPSETLSLTCTVSGGSVSSGDYYWTWIRQSPGKCLEWIGHIYYSGNTNYNPRLKSRLTISIDTSKTQFSLKLSSVTAADTAIYYCVRDRVTGAFDIWGQGTMVTVSSGSDKTHTCPPCPAPELLGGPSVFLFPPKPKDTLMISRTPEVTCVVVDVSHEDPEVKFNWYVDGVEVHNAKTKPREEQYNSTYRVVSVLTVLHQDWLNGKEYKCKVSNKALPAPIEKTISKAKGQPREPRVYTLPPCRDELTKNQVSLTCLVKGFYPSDIAVEWESNGQPENNYKTTPPVLVSDGSFTLYSKLTVDKSRWQQGNVFSCSVMHEALHNHYTQKSLSLSPG
heavy: EVQLVESGGGLVKPGGSLRLSCAASGFTFSSYSMNWVRQAPGKGLEWVSSISSSSSYIYYADSVKGRFTISRDNAKNSLYLQMNSLRAEDTAVYYCARGAPIGAAAGWFDPWGQGTLVTVSSASTKGPSVFPLAPSSKSTSGGTAALGCLVKDYFPEPVTVSWNSGALTSGVHTFPAVLQSSGLYSLSSVVTVPSSSLGTQTYICNVNHKPSNTKVDKKVEPKSCDKTHTCPPCPAPELLGGPSVFLFPPKPKDTLMISRTPEVTCVVVDVSHEDPEVKFNWYVDGVEVHNAKTKPREEQYNSTYRVVSVLTVLHQDWLNGKEYKCKVSNKALPAPIEKTISKAKGQPREPQVCTLPPSRDELTENQVSLTCLVKGFYPSDIAVEWESNGQPENNYKTTPPVLDSDGSFFLYSWLTVDKSRWQQGNVFSCSVMHEALHNHYTQKSLSLSPG
light: DIQMTQSPSSVSASVGDRVTITCRASQGISSWLAWYQQKPGKAPKLLIYAASSLQSGVPSRFSGSGSGTDFTLTISSLQPEDFATYYCQQGVSFPRTFGGGTKVEIKRTVAAPSVFIFPPSDEQLKSGTASVVCLLNNFYPREAKVQWKVDNALQSGNSQESVTEQDSKDSTYSLSSTLTLSKADYEKHKVYACEVTHQGLSSPVTKSFNRGEC
notes: also called EGFR-TriNKET-3
- EC50 [1]: 5.3 nM
- Max FOB [1]: 800 fold over background
- EC50, long-term NK cell-mediated cytotoxicity (IncuCyte, 72 h, 50% human serum), KYSE-30, NK CD16a F/F (n = 2) [2]: 0.015 nM
- EC50, long-term NK cell-mediated cytotoxicity, 786-O, NK CD16a F/F (n = 2) [2]: 0.24 nM
- EC50, long-term NK cell-mediated cytotoxicity, 786-O, NK CD16a V/F (n = 1) [2]: 0.15 nM
- EC50, long-term NK cell-mediated cytotoxicity, HCT116, NK CD16a F/F (n = 2) [2]: 0.28 nM
- EC50, long-term NK cell-mediated cytotoxicity, HCT116, NK CD16a V/V (n = 1) [2]: 0.21 nM
- EC50, long-term NK cell-mediated cytotoxicity, KYSE-30, NK CD16a V/F (n = 1) [2]: 0.013 nM
- EC50, long-term NK cell-mediated cytotoxicity, NCI-H1975, NK CD16a F/F (n = 2) [3]: 0.23 nM
- EC50, long-term NK cell-mediated cytotoxicity, NCI-H1975, NK CD16a V/F (n = 1) [3]: 0.09 nM
- EC50 [4]: 4.6 nM
- Max FOB [4]: 730 fold over background
- EC50 [5]: 1.3 nM
- Max FOB [5]: 340 fold over background
- EC50, NK cell degranulation and cytokine production, human PBMCs with 786-O [6]: 0.089 nM
- EC50, NK cell degranulation and cytokine production, human PBMCs with NCI-H1975 [7]: 0.067 nM
- binding result (recombinant mouse NKG2D): no binding
- Kd [8]: 562 nM
- binding result (recombinant rat NKG2D): no binding
- Kd [9]: 482 nM
- Kd [10]: 4.7 nM
- koff [10]: 0.00095 s⁻¹
- kon [10]: 200000 M⁻¹ s⁻¹
- EC50 of growth inhibition at 72 hours (IncuCyte), human primary keratinocytes, against cetuximab [11]: 60 fold
- EC50 of inhibition of EGF-induced EGFR phosphorylation (AlphaLISA), human primary keratinocytes [11]: 5.3 nM
- EC50 of tumor cell growth inhibition over 72 hours (IncuCyte), NCI-H292-NucLight Green or FaDu cells [11]: 1.7 to 3.9 nM
- EC50 [12]: 11 nM
- Max FOB [12]: 1800 fold over background
- Kd [13]: 482 nM
- koff [13]: 0.11 s⁻¹
- kon [13]: 230000 M⁻¹ s⁻¹
- EC50, ADCP by M0 macrophages, 786-O [14]: 2.2 nM
- EC50, ADCP by M0 macrophages, NCI-H1975 [15]: 2.3 nM
- binding result [16]: no binding
- Kd [17]: 5.9 nM
- koff [17]: 0.001 s⁻¹
- kon [17]: 180000 M⁻¹ s⁻¹
- binding result [18]: no binding
- Kd [19]: 4.7 nM
- koff [19]: 0.00095 s⁻¹
- kon [19]: 200000 M⁻¹ s⁻¹
- Kd (cynomolgus monkey CD16a): 80.9 nM
- EC50, short-term NK cell-mediated cytotoxicity (DELFIA), HCC4006 [20]: 0.092 nM
- EC50, short-term NK cell-mediated cytotoxicity (DELFIA), 786-O [21]: 0.048 nM
- EC50, short-term NK cell-mediated cytotoxicity (DELFIA), BT474 [21]: 0.29 nM
- EC50, short-term NK cell-mediated cytotoxicity (DELFIA), Detroit 562 [21]: 0.058 nM
- EC50, short-term NK cell-mediated cytotoxicity (DELFIA), FaDu [21]: 0.011 nM
- EC50, short-term NK cell-mediated cytotoxicity (DELFIA), HCT116 [21]: 0.054 nM
- EC50, short-term NK cell-mediated cytotoxicity (DELFIA), HT29 [21]: 0.019 nM
- EC50, short-term NK cell-mediated cytotoxicity (DELFIA), KYSE-30 [21]: 0.0053 nM
- EC50, short-term NK cell-mediated cytotoxicity (DELFIA), NCI-H292 [21]: 0.0088 nM
- EC50, short-term NK cell-mediated cytotoxicity (DELFIA), NCI-H1703 [21]: 0.022 nM
- EC50, short-term NK cell-mediated cytotoxicity (DELFIA), NCI-H2172 [21]: 0.079 nM
